The labels stand for the following.
B1: acidic domain of Homo sapiens APLF (APLF^AD, residues 450 to 511), wild type [Homo sapiens] / stoichiometric mixture of full-length Drosophila melanogaster H2A-H2B and H3-H4 (octamer-mix) [Drosophila melanogaster] (parent complex)
chain 1: DEDNDNVGQPNEYDLNDSFLDDEEEDYEPTDEDSDWEPGKEDEEKEDVEELLKEAKRFMKRK
chain 2: not shown
chain 3: not shown
chain 4: not shown
chain 5: not shown

The text below walks through data of paper PMC9328677 (2021).

The variants in the test derive from B1. Nature of the test: ITC.
Consider chain 1 Y13A, chain 1 F19A, chain 1 Y27A, chain 1 W36A, for which the Kd (in general, the equilibrium constant for the complex coming apart) is 794 nM. In the case of chain 1 Y27A, chain 1 W36A, the Kd was determined as 317 nM. Next, chain 1 Y13A, chain 1 F19A: 671 nM.
